From the supplement of paper PMC10126150 come the findings set out here.

± gives the standard deviation of the averaged measurements.

This data set deals with ATP. As to the kind of experiment: switch fluorescence ratio, 500 uM ATP over buffer (Cy3 cluster intensity, sum of 5 cycles each) (fold (ratio)); higher = stronger signal-on switching upon ATP binding; sequences stand for … in TCGTCGGCAGCGTCAGATGTGTATAAGAGACAGTTTTTTTTTTTTTTTTTTTTTTTTT…TC. The note with it: aptamer strand: ATP DNA aptamer (quencher-CACCTGGGGGAGTATTGCGGAGGAAGG + anchor), 100 nM annealed; ATP concentration: 500 uM. In outline:
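Exposure to 500 uM ATP lasted 15 min at 22 °C before imaging, and a selection-buffer image was taken beforehand, for Cy3-labelled switching-strand clusters on a modified Illumina MiSeq flow-cell annealed to 100 nM quencher-labelled ATP aptamer. Five buffer/ATP cycles were run with NaOH stripping and re-annealing between them. The fluorescence ratio per cluster is summed target-cycle over summed buffer-cycle Cy3 intensity, averaged per switch-domain sequence. Clusters outside 100-1000 RFU were excluded.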
TGCTTATTTT: the switch fluorescence ratio stood at 1.01 ± 0.065.
Regarding GTGTATAGAT, the switch fluorescence ratio was found to be 1.01 ± 0.011.
As to GCTTTTCGGG, the switch fluorescence ratio was 1.02 ± 0.02.
In the case of TTTTTGTCCA, the switch fluorescence ratio is 1 ± 0.041.
Under CTATGTTGTT stands 1 ± 0.018; under GGTTCTAAGA, 0.98129 ± 0.00096.
Regarding GGCGCATAGG, the switch fluorescence ratio stood at 1.11 ± 0.02.
For ACTCCAGGAG, the switch fluorescence ratio is 1.06 ± 0.025.
As to TTTTTATATA, the switch fluorescence ratio was 0.997 ± 0.016.
Next, GTGGTTTGAC: 0.99 ± 0.013.
AGTGGGGTTA: the switch fluorescence ratio stood at 0.999 ± 0.04.
Take GGGTGATTGG: the switch fluorescence ratio was 0.993 ± 0.018.
On to CGCTAGGTTG, for which the switch fluorescence ratio amounted to 1.01 ± 0.026.
CGTTACCGGA: the switch fluorescence ratio was 1.01 ± 0.029.
On to TTCTTTGACT, for which the switch fluorescence ratio came out at 0.983 ± 0.024.
Under GGGAGGATCG stands 0.993 ± 0.069.
GGTTTTTCGT: the switch fluorescence ratio was found to be 0.977 ± 0.024.
Next, CAGGTGTTTG: 1.39 ± 0.055.
Under TCCAAGTCGA stands 1.041 ± 0.0033; under AGAGATAGGG, 1.01 ± 0.019.
Under CCTTCAGAGG stands 1.12 ± 0.033; under TCATTGGGAA, 1.01 ± 0.021.
In the case of TTTGCAGCGC, the switch fluorescence ratio was found to be 0.998 ± 0.021.
Under TCGGACGTGC stands 1.35 ± 0.1; under GTGAGGCGGG, 1.009 ± 0.0024; under CTGGTGTATT, 1.017 ± 0.0046.
Under GACTGAGAAG stands 0.945 ± 0.011; under GGAGATAGGG, 1.03 ± 0.017.
Under TGGAATTTTT stands 0.987 ± 0.03.
In the case of TTTTAACCTA, the switch fluorescence ratio stood at 1.01 ± 0.019.
Regarding TATCCTTTGT, the switch fluorescence ratio amounted to 1.22 ± 0.2.
Under TTCGGAGTTG stands 1 ± 0.022; under GGAAGGCATA, 0.9829 ± 0.0096.
Under GAGATAAGGG stands 0.961 ± 0.061; under GGAATAGGAG, 1.037 ± 0.0095.
On to AAAAAAAGAT, for which the switch fluorescence ratio came out at 1.01 ± 0.039.
Under TTCGTTGGGG stands 1.01 ± 0.041; under GGGATCGTAC, 1.07 ± 0.041; under ACCCGCTTTT, 1.38 ± 0.31.
Take CCTGATGGTA: the switch fluorescence ratio was found to be 1.03 ± 0.025.
Next, TGGTGGTAGG: 0.984 ± 0.063; ATTAAAAGTT: 0.984 ± 0.038.
Under GGGAAGGCGG stands 1.02 ± 0.027; under AATTTGTCAT, 0.972 ± 0.045.
Under AGGTAGGTAA stands 1.03 ± 0.054; under AAAGAAAGTC, 1.043 ± 0.006; under TGCATAAGAA, 0.955 ± 0.03.
Consider CAAGCAAATT, for which the switch fluorescence ratio came to 1.042 ± 0.0039.
Under AAGTCAGTTG stands 1.02 ± 0.059; under TATTTTACGT, 1.01 ± 0.013; under GGGTCAAGGA, 0.995 ± 0.019.
Regarding ATCCCCATGG, the switch fluorescence ratio is 1.91 ± 0.051.
Next, ATTTTTGGG: 1.03 ± 0.035.
Under TTAGGGTCGC stands 0.993 ± 0.035; under GGGGAATTGA, 0.9919 ± 0.0013.
In the case of ACCGGTACTC, the switch fluorescence ratio turned out to be 1.31 ± 0.047.
In the case of TTTACTTTAT, the switch fluorescence ratio came to 1.06 ± 0.044.
With TAGAACCGGG, the switch fluorescence ratio was 1.09 ± 0.024.
Next, AGGGGGGACA: 1.02 ± 0.084.
In the case of AGTGTCCTGG, the switch fluorescence ratio came out at 0.986 ± 0.013.
Under AGCTGGAACA stands 1 ± 0.018; under CTTTTTTTTT, 1.02 ± 0.063; under CTTGGAGTGG, 0.978 ± 0.024.
Regarding CTCGGATTGG, the switch fluorescence ratio stood at 1 ± 0.015.
Next, TGAAACCCTA: 1.03 ± 0.016.
Consider GTAGGGGGGG, for which the switch fluorescence ratio was found to be 0.999 ± 0.051.
Turning to TTACTATTCT, the switch fluorescence ratio was found to be 1.001 ± 0.0063.
Regarding CTTGTCATCG, the switch fluorescence ratio turned out to be 0.993 ± 0.037.
For CCGCGTCGCT, the switch fluorescence ratio turned out to be 1.317 ± 0.0055.
Next, CATTGGACGT: 1.029 ± 0.0063.
Next, TTATACATCT: 1.038 ± 0.0068; TATATGATGA: 0.996 ± 0.015; GATATAATGG: 0.9999 ± 0.0019.
Under CCCGGGGTAT stands 1.06 ± 0.057; under CCGGGCGTA, 1.15 ± 0.083.
For GTAGGGCGGT, the switch fluorescence ratio turned out to be 0.955 ± 0.026.
Under TTTCATAAGT stands 0.999 ± 0.025; under TATGGATAGG, 0.996 ± 0.014.
Next, ATGTTCTATA: 0.97751 ± 0.00084; AGGGAAATCG: 0.979 ± 0.037; CGTGGGTAAG: 1.02 ± 0.039.
Under AAGAGTCTTT stands 1.01 ± 0.017; under TATTGTTTTT, 1.01 ± 0.022; under TCTTGCGTGG, 0.954 ± 0.01.
For TGGGGGTTTC, the switch fluorescence ratio was 0.975 ± 0.053.
As to CGGGGTGGTA, the switch fluorescence ratio was found to be 0.9873 ± 0.0069.
Regarding TACGAGTTAA, the switch fluorescence ratio was determined as 0.97 ± 0.015.
Under GGACCCAATG stands 0.986 ± 0.011; under TTTTGCTGGT, 1 ± 0.027; under GATGTTGCTT, 1.02 ± 0.055.
GGTTTACAGC: the switch fluorescence ratio was 0.979 ± 0.012.
Under GGTGCGCCTT stands 0.958 ± 0.013; under ATTATTCAGT, 0.997 ± 0.018; under TGGGAAATCA, 0.993 ± 0.048.
Under TGCATGTGGC stands 0.988 ± 0.012; under AAGATGAGGT, 1.01 ± 0.021; under TAAATGGTTC, 0.969 ± 0.027.
Next, TTGGTTCAGC: 1.05 ± 0.028; CTGGGGCGGG: 0.996 ± 0.057; ACGGTATTTG: 1.13 ± 0.035.
For CGGGGGCGGA, the switch fluorescence ratio was 1.04 ± 0.052.
On to GGTAGAGTTG, for which the switch fluorescence ratio is 0.9758 ± 0.0062.
Consider CGGATGATAG, for which the switch fluorescence ratio was 1 ± 0.059.
In the case of TCGAGAGATA, the switch fluorescence ratio was 1 ± 0.054.
Next, CGGGCCCCGG: 1.74 ± 0.35.
For the sequence ACAAGGATTC, the switch fluorescence ratio came to 0.995 ± 0.025.
For the sequence GATAATGGTT, the switch fluorescence ratio is 0.964 ± 0.011.
On to GCTGACATTC, for which the switch fluorescence ratio was 0.992 ± 0.04.
Turning to AGGATTTCGT, the switch fluorescence ratio is 1.008 ± 0.0068.
In the case of GGGGAAGGGC, the switch fluorescence ratio was 1.02 ± 0.053.
For GCCCGCTTCG, the switch fluorescence ratio was 1.03 ± 0.024.
Under CGGCACCCTT stands 0.997 ± 0.017.
Under TGGTTTTATA stands 0.969 ± 0.02.
As to CGTCGGAATG, the switch fluorescence ratio was found to be 1.091 ± 0.0045.
Under AATTTTGATG stands 0.971 ± 0.018; under TTCGATCGTT, 1.01 ± 0.043; under AGGCTACCGT, 1.0254 ± 0.001.
Next, TTTACGTTGC: 1.34 ± 0.47.
Under TATGAATCCG stands 1 ± 0.063; under CTGCTAGGCT, 1.01 ± 0.028.
